B1: library; numbered along this chain (parent)
chain: MRKPRAAVGSGHRKQAASQEGRQKHAKNNSQAKPSACDGLARQPEEVVLQASVSSYHLFRDVAEVTAFRGSLLSWYDQEKRDLPWRRRAEDEMDLDRRAYAVWVSEVMLQQTQVATVINYYTGWMQKWPTLQDLASASLEEVNQLWAGLGYYSRGRRLQEGARKVVEELGGHMPRTAETLQQLLPGVGRYTAGAIASIAFGQATGVVDGNVARVLCRVRAIGADPSSTLVSQQLWGLAQQLVDPARPGDFNQAAMELGATVCTPQRPLCSQCPVESLCRARQRVEQEQLLASGSLSGSPDVEECAPNTGQCHLCLPPSEPWDQTLGVVNFPRKASRKPPREESSATCVLEQPGALGAQILLVQRPNSGLLAGLWEFPSVTWEPSEQLQRKALLQELQRWAGPLPATHLRHLGEVVHTFSHIKLTYQVYGLALEGQTPVTTVPPGARWLTQEEFHTAAVSTAMKKVFRVYQGQQPGTCMGSKRSQVSSPCSRKKPRMGQQVLDNFFRSHISTDAHSLNSAAQ

Variants of: B1
Test: 8OG:A repair function score (normalized; synonymous = 0, nonsense = -1) (normalized log-likelihood score); higher = more repair activity (WT-like)
Settings: with 8OG:A DNA repair reporter (GFP) in HEK-293 MUTYH KO cells
How it was run: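 MUTYH knockout HEK-293 cells carrying lentiviral MUTYH cDNA NNN codon-scan libraries were grown with 10 pg/ml doxycycline and co-transfected with mCherry and a GFP reporter of 8OG:A repair. Viable mCherry+ cells were sorted at 72 h into GFP+ (repair) and GFP− bins, with three replicates per tile, and tile amplicons were sequenced. Rosace fitness scores for each tile were turned into a normalized repair function score anchored on the synonymous and nonsense distributions. Synonymous medians were set to 0 and nonsense medians to -1, and variants below 300 counts per million at the start were dropped.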

| Variant | 8OG:A repair function score |
| --- | --- |
| W321D | -0.53 |
| W321A | -0.265 |
| S71L | -0.00671 |
| Y100F | -0.679 |
| E46T | 0.134 |
| K333C | 0.053 |
| V301H | -0.166 |
| F453Y | -0.106 |
| E341H | 0.0806 |
| Q521A | 0.0136 |
| Q450R | 0.0701 |
| Q181H | -0.175 |
| P339G | -0.00599 |
| A457G | -0.183 |
| A457F | -0.356 |
| A457E | -0.495 |
| I195F | -1.08 |
| S507W | -0.0429 |
| R87I | -0.0226 |
| R87S | 0.00689 |
| R87H | -0.0676 |
| N307A | -0.0752 |
| G161K | -1.07 |
| G161V | -0.579 |

| Variant | 8OG:A repair function score |
| --- | --- |
| G161H | -1.12 |
| E433R | 0.0685 |
| A194P | -1.06 |
| L295S | -0.0013 |
| G123T | 0.0116 |
| E287Q | -0.114 |
| E287A | -0.017 |
| V348H | -1.31 |
| L215W | -0.704 |
| A220C | -0.411 |
| D224H | -0.924 |
| K164E | -0.382 |
| I359E | -0.818 |
| G444S | -0.291 |
| V114W | -0.527 |
| V114R | -0.297 |
| W374E | -0.436 |
| M478Q | 0.0193 |
| T380L | -0.0431 |
| R81N | -0.365 |
| A400V | -0.246 |
| Q233G | -0.0523 |
| A461M | -0.276 |
| P443V | 0.172 |

| Variant | 8OG:A repair function score |
| --- | --- |
| I509C | -0.00892 |
| C477K | 0.00687 |
| P365G | -0.137 |
| V218C | -0.211 |
| E350A | -0.188 |
| E350C | -0.0435 |
| E350G | -0.128 |
| L49R | 0.00838 |
| A456P | -0.814 |
| A456L | -0.287 |
| V62L | 0.00583 |
| V62C | -0.00556 |
| Y425R | -0.476 |
| E303R | -0.0675 |
| Y56S | -0.0461 |
| A520D | -0.0192 |
| R157F | -0.0928 |
| Q232S | -0.0424 |
| Q232K | -0.0471 |
| Q388M | -0.052 |
| A203V | 0.0414 |
| E141A | -0.0585 |
| S105G | -0.13 |
| S105V | -0.566 |

| Variant | 8OG:A repair function score |
| --- | --- |
| S292R | -0.0254 |
| S483M | -0.00708 |
| S483E | -0.0311 |
| S483V | 0.0104 |
| E167Q | 0.141 |
| E167M | -0.0528 |
| L145T | -0.001 |
| P225Q | -0.132 |
| M496E | 0.00855 |
| A354R | -0.0437 |
| A354Q | -0.0822 |
| R98K | -0.0169 |
| L403V | 0.058 |
| K3Q | 0.107 |
| A291S | -0.000102 |
| A291E | -0.125 |
| D94Q | -0.215 |
| F376H | -0.879 |
| F376Y | -0.715 |
| A445R | -0.53 |
| T439H | 0.301 |
| S136F | -0.278 |
| N210A | -0.876 |
| V206N | -0.923 |

| Variant | 8OG:A repair function score |
| --- | --- |
| V117E | -0.683 |
| Q159N | -0.144 |
| Q159M | 0.0724 |
| E168C | 0.0112 |
| E168G | -0.24 |
| E168N | 0.0349 |
| E168R | -0.0574 |
| G258V | -1.2 |
| S52K | 0.0066 |
| S52V | -0.00119 |
| D249I | -0.596 |
| D249N | -0.673 |
| D249K | -0.584 |
| C216F | -0.905 |
| C216K | -0.969 |
| T179H | 0.0778 |
| T179F | -0.0885 |
| R97S | -0.0417 |
| Y152K | -1.07 |
| L411C | 0.0617 |
| L411N | -0.503 |
| S335K | 0.029 |
| S335D | -0.0695 |
| K390H | 0.403 |

| Variant | 8OG:A repair function score |
| --- | --- |
| Q110A | -2.51 |
| V53N | -0.0892 |
| V441F | -0.0997 |
| A223K | -0.118 |
| A223M | -0.321 |
| P84I | -0.257 |
| P84G | -0.775 |
| S296C | -0.0117 |
| S296G | -0.0331 |
| T424M | -0.383 |
| Y120L | -0.231 |
| Y120Q | -0.154 |
| E285P | -0.129 |
| E302Y | -0.246 |
| W381N | 0.268 |
| P247M | -0.978 |
| D96Y | -0.308 |
| Q397V | 0.0994 |
| R332E | -0.449 |
| I118E | -0.0341 |
| I118M | -0.277 |
| A89Q | -0.0663 |
| Q472K | -0.009 |
| A305E | -0.0473 |

| Variant | 8OG:A repair function score |
| --- | --- |
| R69F | -1.53 |
| R409N | -0.0513 |
| N517G | 0.0215 |
| A36S | -0.0113 |
| G434E | 0.0175 |
| S367K | 0.111 |
| A391Y | -0.00342 |
| A391D | -0.378 |
| N366C | -0.137 |
| L289E | -0.00394 |
| G171P | -1.16 |
| Q126N | 0.0504 |
| Q126R | 0.0261 |
| Q126A | 0.00568 |
| L83P | -0.673 |
| L370Q | -0.398 |
| L370H | -0.297 |
| P437Q | -0.0348 |
| K463E | -0.265 |
| L73G | -0.786 |
| G326Q | -0.123 |
| M462K | -1.21 |
| Q484H | 0.0028 |

From the supplement of paper PMC11908140
